According to patent US20260116958A1 (University of California, published 2026):

T1: active BoNT/G holotoxin (Clostridium botulinum, UniProt Q60393 2-1297)
T1 sequence: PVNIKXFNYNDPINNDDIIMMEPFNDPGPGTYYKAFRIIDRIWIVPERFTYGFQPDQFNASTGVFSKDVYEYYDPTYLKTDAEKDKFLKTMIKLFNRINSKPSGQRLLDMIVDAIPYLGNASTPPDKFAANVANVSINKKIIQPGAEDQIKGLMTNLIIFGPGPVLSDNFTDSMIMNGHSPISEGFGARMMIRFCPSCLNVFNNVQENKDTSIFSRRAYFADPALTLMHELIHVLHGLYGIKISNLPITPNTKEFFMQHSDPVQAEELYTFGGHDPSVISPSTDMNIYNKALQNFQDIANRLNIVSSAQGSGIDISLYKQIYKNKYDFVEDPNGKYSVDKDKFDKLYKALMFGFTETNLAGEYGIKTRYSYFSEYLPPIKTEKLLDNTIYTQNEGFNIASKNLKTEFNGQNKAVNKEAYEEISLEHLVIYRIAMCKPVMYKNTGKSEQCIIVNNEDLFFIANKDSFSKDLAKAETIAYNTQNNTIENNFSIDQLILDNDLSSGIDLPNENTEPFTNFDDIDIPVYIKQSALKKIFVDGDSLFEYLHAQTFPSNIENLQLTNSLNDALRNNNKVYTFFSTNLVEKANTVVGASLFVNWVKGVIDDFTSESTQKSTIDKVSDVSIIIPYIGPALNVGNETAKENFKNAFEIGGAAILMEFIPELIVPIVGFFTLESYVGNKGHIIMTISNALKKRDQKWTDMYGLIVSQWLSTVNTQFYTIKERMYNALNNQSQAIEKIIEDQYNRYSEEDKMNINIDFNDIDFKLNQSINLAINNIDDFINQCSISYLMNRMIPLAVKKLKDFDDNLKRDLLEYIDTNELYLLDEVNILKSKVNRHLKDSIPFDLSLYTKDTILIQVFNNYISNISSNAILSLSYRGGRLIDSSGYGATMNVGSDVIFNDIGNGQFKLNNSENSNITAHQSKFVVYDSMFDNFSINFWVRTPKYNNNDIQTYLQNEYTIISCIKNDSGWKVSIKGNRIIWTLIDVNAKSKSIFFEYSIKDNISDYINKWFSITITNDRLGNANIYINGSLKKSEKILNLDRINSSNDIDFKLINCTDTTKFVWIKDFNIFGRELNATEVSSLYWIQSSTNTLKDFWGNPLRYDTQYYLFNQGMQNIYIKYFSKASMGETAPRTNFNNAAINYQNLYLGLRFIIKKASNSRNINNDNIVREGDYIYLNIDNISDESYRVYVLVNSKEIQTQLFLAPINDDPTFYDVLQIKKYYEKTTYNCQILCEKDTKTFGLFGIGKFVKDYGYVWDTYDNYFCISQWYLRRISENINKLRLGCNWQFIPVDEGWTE

T2: inactive BoNT/G (BoNT/Gi) (Clostridium botulinum, UniProt Q60393 1-1297)
T2 sequence: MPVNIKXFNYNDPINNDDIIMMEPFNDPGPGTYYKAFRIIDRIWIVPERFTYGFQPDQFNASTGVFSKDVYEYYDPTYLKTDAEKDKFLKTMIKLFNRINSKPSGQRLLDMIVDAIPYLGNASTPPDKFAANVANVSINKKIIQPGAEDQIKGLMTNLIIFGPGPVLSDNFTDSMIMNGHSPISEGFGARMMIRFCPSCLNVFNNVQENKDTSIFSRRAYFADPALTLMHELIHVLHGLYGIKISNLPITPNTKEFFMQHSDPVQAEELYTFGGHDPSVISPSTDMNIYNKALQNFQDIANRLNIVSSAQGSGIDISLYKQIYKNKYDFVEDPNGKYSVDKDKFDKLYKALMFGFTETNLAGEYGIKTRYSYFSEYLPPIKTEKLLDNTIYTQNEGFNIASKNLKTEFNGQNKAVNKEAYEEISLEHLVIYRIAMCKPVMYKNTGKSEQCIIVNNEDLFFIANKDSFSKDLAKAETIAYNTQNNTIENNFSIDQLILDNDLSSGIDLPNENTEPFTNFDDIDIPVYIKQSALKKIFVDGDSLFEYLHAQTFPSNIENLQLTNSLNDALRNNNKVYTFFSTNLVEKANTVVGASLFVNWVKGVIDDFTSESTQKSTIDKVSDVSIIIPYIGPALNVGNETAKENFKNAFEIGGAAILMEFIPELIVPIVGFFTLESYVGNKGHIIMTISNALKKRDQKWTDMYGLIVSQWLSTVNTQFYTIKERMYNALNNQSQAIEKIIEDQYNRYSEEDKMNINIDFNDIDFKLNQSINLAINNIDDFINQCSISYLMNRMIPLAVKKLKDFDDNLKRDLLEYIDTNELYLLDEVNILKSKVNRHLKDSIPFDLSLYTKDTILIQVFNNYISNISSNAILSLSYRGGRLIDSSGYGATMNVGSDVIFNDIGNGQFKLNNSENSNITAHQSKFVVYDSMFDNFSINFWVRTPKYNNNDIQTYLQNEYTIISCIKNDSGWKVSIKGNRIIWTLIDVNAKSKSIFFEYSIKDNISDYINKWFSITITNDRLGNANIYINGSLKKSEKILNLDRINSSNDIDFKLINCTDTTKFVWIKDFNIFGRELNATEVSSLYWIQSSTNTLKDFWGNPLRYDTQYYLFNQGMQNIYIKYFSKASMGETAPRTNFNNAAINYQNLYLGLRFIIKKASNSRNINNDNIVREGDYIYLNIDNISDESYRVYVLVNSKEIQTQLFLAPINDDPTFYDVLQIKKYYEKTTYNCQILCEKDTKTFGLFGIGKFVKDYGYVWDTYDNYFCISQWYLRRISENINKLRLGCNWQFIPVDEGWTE


Assays:
active BoNT/G holotoxin = molecular target: T1, active BoNT/G holotoxin
[1] = molecular target: inactive BoNT/G (BoNT/Gi) (Clostridium botulinum) (UniProt Q60393); experiment: flow cytometry, scFv on yeast
[2] = molecular target: inactive BoNT/G (BoNT/Gi) (Clostridium botulinum) (UniProt Q60393); experiment: flow cytometry, scFv on yeast; against hu6G6 Wt
[3] = molecular target: T2, inactive BoNT/G (BoNT/Gi); experiment: flow cytometry, scFv on yeast

Binder	Kd (active BoNT/G holotoxin)	Kd [1]	Improvement over WT [2]	fold lower affinity than murine 6G7.1 [3]
hu6G6.1 IgG (antibody, V domains shown) VH: QVQLVQSGAEVKKPGASVKLSCKASGFNIKDTYMHWVRQAPGQGLEWIGRIDPENGNTKYDPKFQGRATITAYKSINTAYLELSRLRSDDTAVYYCASGPNYYGTTWFAYWGQGTTVTVSS VL: EIVLTQSPSTLSASVGDRVTITCRASHGISNYLAWYQQKPGRAPKLLIYKASTLHIGVPSRFSGSGSGTEFALTISSLQPDDFSTYYCQQYNSYLPHTFGQGTRLEIKR	0.476 nM			
hu6G6 variant A3 scFv (scFv) scFv: QVQLVQSGAEVKKPGASVKLSCKASGFNIKDTYMHWVRQAPGQGLEWIGRIDPANGNTKYDPKFQGRATITAGTSINTAYLELSRLRSDDTAVYYCASGPNYYGTTWFAYWGQGTTVTVSSVDLKSGGSTSGSGKPGSGEGSSGSARKIVLTQSPSTLSASVGDRVTITCRASHGISNYLAWYQQKPGRAPKLLIYKASTLHIGVPSRFSGSGSGTEFALTISSLQPDDFSTYYCQQYISYLPHTFGQGTRLEIK		5.18 nM	4.5 fold	
hu6G6 variant B8.1 scFv (scFv) scFv: QVQLVQSGAEVNKPGASVKLSCKASGFNIKDTYMHWVRQAPGQGLEWIGRIDPANGNTKYDPKFQGRATITAYTSFNTAYLELSRLRSDDTAVYYCASGPNYYGTTWFAYWGQGTTVTVSSVDLKSGGSTSGSGKPGSGEGSSGSAREIVLTQSPSTLSASVGDRVTITCRASHGISNYLAWYQQKPGRAPKLLIYKASTLHIGVPSRFSGSGSGTEFALTISSLQPDDFSTYYCQQYNSYLPHTFGQGTRLEIK		5.43 nM	4.3 fold	
hu6G6 variant A4 scFv (scFv) scFv: QVQLVQSGAEVKKPGASVKLSCKASGFNIKDTYMHWVRQAPGQGLEWIGRIDPENGNTKYDPKFQGRATITAYKSINTAYLELSRLRSDDTAVYYCASGPNYYGTTWFAYWGQGTTVTVSSVDLKSGGSTSDSGKPGSGEGSSGSAREIVLTQSPSTLSASVGDRVTITCRASHGISNYLAWYQQKPGRAPKLLIYKASTLHIGVPSRFSGSGSGTEFALTISSLQPDDFSTYYCQQYNSYLPHTFGQGTRLEIK		3.46 nM	6.8 fold	
hu6G6 variant B8 scFv (scFv) scFv: QVQLVQSGAEVNKPGASVKLSCKASGFNIKDTYMHWVRQAPGQGLEWIGRIDPANGNTKYDPKFQGRATITAYTSFNTAYLELSRLRSDDTAVYYCASGPNYYGTTWFAYWGQGSTVTVSSVDLKSGGSTSGSGKPGSGEGSSGSAREIVLTQSPSTLSASVGDRVTITCRASHGISNYLAWYQQKPGRAPKLLIYKASTLHIGVPSRFSGSGSGTEFALTISSLQPDDFSTYYCQQYNSYLPHTFGQGTRLEIK		3.75 nM	6.2 fold	
hu6G6 variant A3.1 scFv (scFv) scFv: QVQLVQSGAEVKKPGASVKLSCKASGFNIKDTYMHWVRQAPGQGLEWIGRIDPANGNTKYDPKFQGRATITAGTSINTAYLELSRLRSDDTAVYYCASGPNYYGTTWFAYWGQGTTVTVSSVDLKSGGSTSGSGKPGSGEGSSGSAREIVLTQSPSTLSASVGDRVTITCRASHGISNYLAWYQQKPGRAPKLLIYKASTLHIGVPSRFSGSGSGTEFALTISSLQPDDFSTYYCQQYNSYLPHTFGQGTRLEIK		6.5 nM	3.5 fold	
Hu6G7.1 scFv (scFv, V domains shown) VH: QVQLVQSGAEVKKPGASVKVSCKASDYSFTDYNIYWVRQTPGQGLEWIGYIDPYNGGTSYNQKFKGRATLTVDKSISTAYMELSRLRSDDTAVYYCALYGYDPDYIDYWGQGTTLTVSS VL: DIVLTQSPASMAVSPGQRVTITCSASSSVSYLHWFQQKPGQSPKLWIYSTSNLASGVPARFSGSGSGTDYTLTINPMEAEDTATYYCQQRSSYPYTFGQGTKLEIKR				10 fold
